Legend:
[1] = molecular target: endothelial cell receptor for TKPPR on human aortic endothelial cells (HAEC); experiment: fluorescent beads on confluent HAEC, static, Experiment 1, image analysis
[2] = molecular target: endothelial cell receptor for TKPPR on human aortic endothelial cells (HAEC); experiment: competition on HAEC: VEGF165 against 5% BRU-114 bubbles
[3] = molecular target: endothelial cell receptor for TKPPR on human aortic endothelial cells (HAEC); experiment: competition on HAEC: VEGF165 6.25 ng/ml against 5% BRU-114 bubbles
[4] = molecular target: endothelial cell receptor for TKPPR on human aortic endothelial cells (HAEC); experiment: competition on HAEC: VEGF165 50 ng/ml against 5% BRU-114 bubbles
[5] = molecular target: endothelial cell receptor for TKPPR on human aortic endothelial cells (HAEC); experiment: competition on HAEC: VEGF165 75 ng/ml against 5% BRU-114 bubbles
[6] = molecular target: endothelial cell receptor for TKPPR on human aortic endothelial cells (HAEC); experiment: competition on HAEC: VEGF165 200 ng/ml against 2% BRU-114 bubbles
[7] = molecular target: endothelial cell receptor for TKPPR on human aortic endothelial cells (HAEC); experiment: competition on HAEC: VEGF165 25 ng/ml against 2% BRU-114 bubbles
[8] = molecular target: endothelial cell receptor for TKPPR on human aortic endothelial cells (HAEC); experiment: competition on HAEC: VEGF165 100 ng/ml against 2% BRU-114 bubbles
[9] = molecular target: endothelial cell receptor for TKPPR on human aortic endothelial cells (HAEC); experiment: competition on HAEC: VEGF165 12.5 ng/ml against 5% BRU-114 bubbles
[10] = molecular target: endothelial cell receptor for TKPPR on human aortic endothelial cells (HAEC); experiment: competition on HAEC: VEGF165 25 ng/ml against 5% BRU-114 bubbles
[11] = molecular target: endothelial cell receptor for TKPPR on human aortic endothelial cells (HAEC); experiment: competition on HAEC: KDR/Fc 1000 ng/ml against 5% BRU-114 bubbles
[12] = molecular target: endothelial cell receptor for TKPPR on human aortic endothelial cells (HAEC); experiment: competition on HAEC: KDR/Fc 500 ng/ml against 5% BRU-114 bubbles
[13] = molecular target: endothelial cell receptor for TKPPR on human aortic endothelial cells (HAEC); experiment: competition on HAEC: KDR/Fc 125 ng/ml against 5% BRU-114 bubbles
[14] = molecular target: endothelial cell receptor for TKPPR on human aortic endothelial cells (HAEC); experiment: competition on HAEC: KDR/Fc 250 ng/ml against 5% BRU-114 bubbles
[15] = molecular target: endothelial cell receptor for TKPPR on human aortic endothelial cells (HAEC); experiment: competition on HAEC: KDR/Fc 2500 ng/ml against 5% BRU-114 bubbles
[16] = molecular target: endothelial cell receptor for TKPPR on human aortic endothelial cells (HAEC); experiment: competition on HAEC: VEGF121 400 ng/ml against 2% BRU-114 bubbles
[17] = molecular target: endothelial cell receptor for TKPPR on human aortic endothelial cells (HAEC); experiment: competition on HAEC: VEGF121 200 ng/ml against 2% BRU-114 bubbles
[18] = molecular target: endothelial cell receptor for TKPPR on human aortic endothelial cells (HAEC); experiment: competition on HAEC: VEGF121 100 ng/ml against 2% BRU-114 bubbles

soluble human KDR/Fc chimera (R&D Systems), sequence (P35968 20-764, change not shown): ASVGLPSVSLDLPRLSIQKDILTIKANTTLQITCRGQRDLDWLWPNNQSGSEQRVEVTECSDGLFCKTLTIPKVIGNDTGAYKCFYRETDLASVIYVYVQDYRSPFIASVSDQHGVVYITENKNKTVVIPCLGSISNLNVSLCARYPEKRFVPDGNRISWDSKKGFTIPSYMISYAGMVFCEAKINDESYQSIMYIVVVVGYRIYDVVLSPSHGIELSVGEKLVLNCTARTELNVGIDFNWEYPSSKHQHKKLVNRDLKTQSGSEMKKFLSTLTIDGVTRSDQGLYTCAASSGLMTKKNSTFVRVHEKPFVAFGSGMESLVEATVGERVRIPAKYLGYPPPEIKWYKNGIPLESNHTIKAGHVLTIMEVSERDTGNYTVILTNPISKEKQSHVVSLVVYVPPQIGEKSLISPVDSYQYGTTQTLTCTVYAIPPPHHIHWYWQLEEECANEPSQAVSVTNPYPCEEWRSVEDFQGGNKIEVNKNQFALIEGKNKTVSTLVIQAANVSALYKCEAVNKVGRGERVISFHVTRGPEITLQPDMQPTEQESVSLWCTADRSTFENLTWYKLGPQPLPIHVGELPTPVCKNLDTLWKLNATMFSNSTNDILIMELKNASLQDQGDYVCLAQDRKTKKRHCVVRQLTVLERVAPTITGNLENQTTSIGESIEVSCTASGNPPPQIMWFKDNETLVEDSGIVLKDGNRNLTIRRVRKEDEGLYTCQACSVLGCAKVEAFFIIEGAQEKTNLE

An Integrated density of bound beads (arbitrary units) [1] of 1.61 was found for “BSA-conjugated fluorescent microspheres (from UniProt P02769 25-607)” in this work.
An IC50 [2] of 0.0125 µg/mL, a Bubbles Bound [3] of 1180 bubbles and a Bubbles Bound [4] of 226 bubbles were found for “VEGF165 (from UniProt P15692 27-191) (ligand)” in this work. It also gave a Bubbles Bound [5] of 190 bubbles, a Bubbles Bound [6] of 70 bubbles and a Bubbles Bound [7] of 144 bubbles. It also gave a Bubbles Bound [8] of 94 bubbles, a Bubbles Bound [9] of 599 bubbles and a Bubbles Bound [10] of 342 bubbles.
A Bubbles Bound [11] of 75 bubbles, a Bubbles Bound [12] of 342 bubbles and a Bubbles Bound [13] of 1030 bubbles were found for “soluble human KDR/Fc chimera (R&D Systems) (from UniProt P35968 20-764) (Fc fusion)” in this work. The Bubbles Bound [14] was 786 bubbles and the Bubbles Bound [15] was 84 bubbles.
A Bubbles Bound [16] of 778 bubbles, a Bubbles Bound [17] of 849 bubbles and a Bubbles Bound [18] of 878 bubbles were found for “VEGF121 (from UniProt P15692 27-147) (ligand)” in this work.
